One assay has as its target HmuY (Porphyromonas gingivalis, UniProt A2BCY8). Description: UV-visible difference-spectrum heme titration of purified protein, one-site model; CD and MCD. It counts as binding.
In assay [1] the target is Tannerella forsythia ATCC 43037 Tfo protein (Tannerella forsythia ATCC 43037). The experiment in a line: SEC; holo protein (with heme), under reducing conditions.
Assay [2] concerns the target Porphyromonas gingivalis A7436 HmuY protein (Porphyromonas gingivalis A7436). The experiment in a line: SEC; holo protein (with heme), under oxidizing conditions. A general note: Size exclusion chromatography separates by hydrodynamic size, large species first.
For assay [3] the target is unchanged. The experiment in a line: SDS/PAGE; purified protein run on SDS/PAGE; samples solubilized at 37°C for 1 h or at 100°C for 5 min.

The Kd is the constant that tells how readily two partners part at equilibrium. As to `C=CC1=C(C)C2=Cc3c(C=C)c(C)c4[n]3[Fe][n]3c(c(C)c(CCC(=O)O)c3=CC3=NC(=C4)C(C)=C3CCC(=O)O)=CC1=N2` [heme], the dissociation constant Kd on HmuY is less than 1 nM.

The term stoichiometry N denotes the number of molecules, sites or subunits per partner or assembly. “Tannerella forsythia ATCC 43037 Tfo protein (natural protein)” showed a stoichiometry N in assay [1] of 2.

Consider “Porphyromonas gingivalis A7436 HmuY protein (natural protein)”, for which the stoichiometry N in assay [2] and in assay [3] was 2 each time.

The values above are taken from paper PMC6200708, “Tannerella forsythia Tfo belongs to Porphyromonas gingivalis HmuY-like family of proteins but differs in heme-binding properties” (Bioscience Reports, 2018).
